{"source": "patent US20220033491A1", "about": "“COMBINATION THERAPY OF CLDN18 ANTIBODY AND CHEMOTHERAPY DRUGS” (CAFA THERAPEUTICS LIMITED, priority 2018, published 2022)", "molecules": {"B1": {"name": "Ab: humanized antibody targeting CLD18A2, heavy chain variable region SEQ ID NO: 15, light chain variable region SEQ ID NO: 13 (antibody, V domains shown)", "VH": "QVQLQESGPGLIKPSQTLSLTCTVSGGSISSGYNWHWIRQPPGKGLEWIGYIHYTGSTNYNPALRSRVTISVDTSKNQFSLKLSSVTAADTAIYYCARIYNGNSFPYWGQGTTVTVSS", "VL": "DIVMTQSPDSLAVSLGERATINCKSSQSLFNSGNQKNYLTWYQQKPGQPPKLLIYWASTRESGVPDRFSGSGSGTDFTLTISSLQAEDVAVYYCQNAYSFPYTFGGGTKLEIKR"}}, "key": {"[1]": {"system": "human gastric cancer PDX-GA0006 model", "assay": "Analysis of the administration amount of antibody in tumor-forming PDX mice (Example 3)", "format": "in vivo, BALB/c nude mice", "conditions": "AB3 group: 100 mg/kg i.p. 3 times a week for 2 weeks, versus 40 and 70 mg/kg; FIG. 5", "description": "(§1) According to Example 2, different dosage of antibodies were administered to tumor-forming mice. The administration manners are listed as follows:\n(§2) 1. AB1, administered with the antibody against CLD18A2 prepared in Example 1, at a dosage of 40 mg/kg, intraperitoneal injection, 3 times a week for 2 weeks.\n(§3) 2. AB2, administered with the antibody against CLD18A2 prepared in Example 1, at a dosage of 70 mg/kg, intraperitoneal injection, 3 times a week for 2 weeks.\n(§4) 3. AB3, administered with the antibody against CLD18A2 prepared in Example 1, at a dosage of 100 mg/kg, intraperitoneal injection, 3 times a week for 2 weeks."}, "[2]": {"assay": "Body weight of mice given different dosages of antibody (Example 3)", "format": "in vivo, BALB/c nude mice", "conditions": "40, 70, 100 mg/kg i.p. 3 times a week for 2 weeks; FIG. 6", "description": "as §1, §2, §3, §4"}, "[3]": {"system": "human gastric cancer PDX-GA0006 model", "assay": "In vivo efficacy experiment of subcutaneous transplanted tumor in mouse PDX model (Example 2)", "set-up": "species or system BALB/c nude mice", "conditions": "tumors weighed after euthanasia on D51; Ab 40 mg/kg i.p. 3 times a week; epirubicin 1.25 mg/kg, oxaliplatin 3.25 mg/kg, fluorouracil 56.25 mg/kg once a week", "source_text": "A 2×2×2 mm gastric cancer PDX tumor mass was inoculated into BALB/c mice (the day of inoculation was DO). On D27 of subcutaneous inoculation, the tumor volume was 128 mm^3 on average, thereby obtaining the human gastric cancer PDX-GA0006 model, or abbreviated as PDX model. The tumor-forming mice were randomly divided into 6 groups, namely solvent group, antibody group (Ab group), EOF group, EOF+Ab group, OF group, OF+Ab group. During the experiment, the general clinical symptoms of the animals were observed, and the body weight and tumor diameter were measured twice a week. On D51, the mice were euthanized. The manners of administration are listed as follows:\nSolvent group: intraperitoneal injection, 3 times a week.\nAb group: antibody against CLD18A2 prepared in Example 1, 40 mg/kg, intraperitoneal injection, 3 times a week.\nEOF group: a combination of epirubicin hydrochloride for intraperitoneal injection (1.25 mg/kg)+oxaliplatin for injection (3.25 mg/kg)+fluorouracil injection (56.25 mg/kg), once a week; solvent, intraperitoneal injection, 3 times a week.\nEOF+Ab group: EOF (epirubicin hydrochloride (1.25 mg/kg)+oxaliplatin for injection (3.25 mg/kg)+fluorouracil injection (56.25 mg/kg)), once a week, the antibody against CLD18A2 (40 mg/kg), 3 times a week. […]"}}, "data": [{"molecule": "B1", "values": [{"measurement": "anti-tumor effects (increase in tumor volume) at different dosages", "setting": "[1]", "value": "better anti-tumor effects"}, {"measurement": "change in body weight of mice", "setting": "[2]", "value": "no significant change"}, {"measurement": "tumor inhibition rate compared with the solvent group (tumor weight)", "setting": "[3]", "value": 1.21, "unit": "%"}]}]}
